Assay results from patent US20130064826A1 (KALOBIOS PHARMACEUTICALS, published 2013).

T1: EMR2 (UniProt Q9UHX3 24-540, limits assumed)
T1 sequence (looked up): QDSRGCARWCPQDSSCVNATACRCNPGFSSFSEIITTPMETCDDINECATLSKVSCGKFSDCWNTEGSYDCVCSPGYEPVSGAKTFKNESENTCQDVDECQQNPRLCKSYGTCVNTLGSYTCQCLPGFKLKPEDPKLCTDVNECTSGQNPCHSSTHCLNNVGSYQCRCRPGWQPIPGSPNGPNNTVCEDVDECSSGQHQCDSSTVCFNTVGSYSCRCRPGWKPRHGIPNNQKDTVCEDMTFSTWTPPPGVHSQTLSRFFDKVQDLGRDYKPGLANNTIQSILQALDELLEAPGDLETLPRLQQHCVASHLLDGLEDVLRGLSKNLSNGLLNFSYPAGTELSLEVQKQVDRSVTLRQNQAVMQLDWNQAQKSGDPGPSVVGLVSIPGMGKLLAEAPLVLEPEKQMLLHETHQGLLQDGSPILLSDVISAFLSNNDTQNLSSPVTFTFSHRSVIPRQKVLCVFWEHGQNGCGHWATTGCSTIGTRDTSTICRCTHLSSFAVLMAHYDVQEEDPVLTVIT

T2: CD97 (UniProt P48960 21-552, limits assumed)
T2 sequence (looked up): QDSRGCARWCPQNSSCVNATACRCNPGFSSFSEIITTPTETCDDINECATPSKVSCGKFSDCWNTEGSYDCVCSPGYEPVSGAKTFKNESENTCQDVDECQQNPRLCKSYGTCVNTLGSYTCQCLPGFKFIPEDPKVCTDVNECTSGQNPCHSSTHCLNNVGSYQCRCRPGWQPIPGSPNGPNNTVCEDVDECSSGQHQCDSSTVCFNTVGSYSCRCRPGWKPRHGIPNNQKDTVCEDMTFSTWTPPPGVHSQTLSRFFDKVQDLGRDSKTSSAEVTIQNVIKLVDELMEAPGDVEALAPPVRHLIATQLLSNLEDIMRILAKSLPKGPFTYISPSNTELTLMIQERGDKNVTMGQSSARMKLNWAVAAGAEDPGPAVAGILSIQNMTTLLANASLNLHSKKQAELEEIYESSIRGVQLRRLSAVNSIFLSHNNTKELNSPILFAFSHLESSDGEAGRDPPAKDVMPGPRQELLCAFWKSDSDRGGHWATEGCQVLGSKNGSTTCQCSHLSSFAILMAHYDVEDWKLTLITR

T3: EMR1 on human eosinophils (human, UniProt Q14246 21-886)
T3 construct: whole, on cells
T3 sequence (looked up): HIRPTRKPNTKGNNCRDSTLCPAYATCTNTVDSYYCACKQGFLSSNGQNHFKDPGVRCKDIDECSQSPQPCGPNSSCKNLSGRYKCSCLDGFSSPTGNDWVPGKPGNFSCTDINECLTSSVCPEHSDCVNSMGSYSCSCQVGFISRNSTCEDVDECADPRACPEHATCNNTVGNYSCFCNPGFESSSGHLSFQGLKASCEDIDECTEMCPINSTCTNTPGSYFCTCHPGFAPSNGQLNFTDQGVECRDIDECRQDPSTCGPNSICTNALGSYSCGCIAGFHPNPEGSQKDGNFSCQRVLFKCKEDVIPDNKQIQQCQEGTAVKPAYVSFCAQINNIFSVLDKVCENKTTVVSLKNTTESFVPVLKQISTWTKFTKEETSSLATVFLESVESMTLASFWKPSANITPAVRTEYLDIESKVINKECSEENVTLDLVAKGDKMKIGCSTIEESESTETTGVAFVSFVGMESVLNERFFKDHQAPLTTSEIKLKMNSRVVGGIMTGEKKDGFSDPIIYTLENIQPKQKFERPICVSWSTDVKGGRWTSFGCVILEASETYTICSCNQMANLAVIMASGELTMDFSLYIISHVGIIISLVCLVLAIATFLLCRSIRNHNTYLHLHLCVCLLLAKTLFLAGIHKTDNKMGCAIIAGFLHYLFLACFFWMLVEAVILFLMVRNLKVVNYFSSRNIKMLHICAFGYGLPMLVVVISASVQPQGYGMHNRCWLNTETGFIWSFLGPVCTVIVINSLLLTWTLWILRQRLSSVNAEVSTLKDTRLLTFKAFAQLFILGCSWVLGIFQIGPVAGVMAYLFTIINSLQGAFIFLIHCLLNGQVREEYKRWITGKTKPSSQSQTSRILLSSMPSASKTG

T4: Peptide 7
T4 construct: also called 18 mer; EMR1 ELD-6 271-288
T4 peptide: RDIDECRQDPSTCGPNSI

T5: Peptide 4
T5 construct: also called 20 mer; EMR1 ELD-6 271-290
T5 peptide: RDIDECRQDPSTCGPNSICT

T6: Peptide 1
T6 construct: also called 27 mer; EMR1 ELD-6 271-297
T6 peptide: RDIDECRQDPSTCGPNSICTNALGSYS

B1: monoclonal antibody 19-1E7 (antibody, V domains shown)
VH: QVQLKESGPGLVAPSQSLSITCTVSGFSLTNFGIHWVRQPPGKGLEWLGVIWSGGGTNYNSALMSRLSISKDNSKSQVFLKMNSLQTDDTAIYYCVSIYYRGFDSWGQGTTLTVSS
VL: DVFMTQAPLSLPVSLGDQASISCRSSQSIVHSNGNTYLEWYLQKPGQSPKLLIYRVSNRFSGVPDRFSGSGSGTDFTLKISRVEAEDLGVYYCFQGSHVPLTFGAGTRLELK
notes: Murine hybridoma antibody raised against human EMR1-Fc; Hybridoma supernatant was used in the screening
B2: chimeric 19-1E7 IgG1k antibody (c1E7) (antibody, V domains shown)
VH: B1 VH
VL: B1 VL
notes: 19-1E7 variable regions combined with human gamma-1 Fc and kappa constant regions (IgG1 kappa); Made in fucosylated (CHOK1 SV) and non-fucosylated (MS704-PF) forms; also called chimeric 1E7

How the values were obtained:
EMR2 = molecular target: T1, EMR2; test: not described
CD97 = molecular target: T2, CD97; test: not described
[1] = molecular target: T3, EMR1 on human eosinophils; test: flow cytometry on human eosinophils
Description: Splenic B cells from mice immunized with purified human EMR1-Fc fusion protein were fused with SP2/0-Ag14 cells to generate hybridoma cell lines. Supernatants containing antibody from monoclonal lines were tested for binding to recombinant human EMR1 by ELISA. Antibodies that bound EMR1 were tested for binding to human eosinophils by flow cytometry. Polymorphonuclear-cell rich fractions from buffy coat blood were obtained by Ficoll gradient centrifugation and residual red blood cells were lysed with ammonium chloride (ACK lysis buffer). Eosinophils were isolated by negative selection using a MACS eosinophil isolation kit (Miltenyi) and incubated with 10 μg/ml rat IgG and 2% BSA to block nonspecific IgG binding before addition of anti-EMR1 antibody or isotype control antibody. Anti-mouse FITC antibody was used for detection of bound antibodies on a FACSCalibur flow cytometer.

Peptide 7 = molecular target: T4, Peptide 7; test: biolayer interferometry (ForteBio Octet)
Peptide 4 = molecular target: T5, Peptide 4; test: biolayer interferometry (ForteBio Octet)
Peptide 1 = molecular target: T6, Peptide 1; test: biolayer interferometry (ForteBio Octet)

| binding result (EMR2) | binding result (CD97) | binding result [1] | binding result (Peptide 7) | binding result (Peptide 4) | binding result (Peptide 1) | Binder |
| --- | --- | --- | --- | --- | --- | --- |
| no binding | no binding | binds |  |  |  | B1 |
|  |  |  | binds | binds | binds | B2 |
